Data: patent US20220362394A1 (SUTRO BIOPHARMA, published 2022)

T1: human BCMA-Fc (human, UniProt Q02223 1-54)
T1 construct: Bought from R&D Systems; also called huBCMA-Fc; not shown: Fc part not described
T1 sequence: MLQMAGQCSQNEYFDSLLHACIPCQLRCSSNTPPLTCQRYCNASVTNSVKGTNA

T2: human BCMA on cells (human, UniProt Q02223 1-184)
T2 construct: also called hBCMA; BCMA on NCI-H929, ARP-1, OPM-2, U266B1, MM.1S, RPMI-8226 cells
T2 sequence: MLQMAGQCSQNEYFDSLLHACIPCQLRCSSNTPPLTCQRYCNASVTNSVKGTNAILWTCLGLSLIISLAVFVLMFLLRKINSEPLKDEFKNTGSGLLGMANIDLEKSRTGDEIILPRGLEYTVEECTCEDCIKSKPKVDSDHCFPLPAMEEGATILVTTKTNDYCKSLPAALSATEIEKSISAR

B1: 2290-A02 (antibody, V domains shown)
VH: EVQLVESGGGLVQPGGSLRLSCAASGFNISTRWIHWVRQAPGKGLEWVGVITPSAGYTHYADSVKGRFTISAGTSKNTAYLQMNSLRAEDTAVYYCARDLGSRYWVGVFDYWGQGTLVTVSS
VL: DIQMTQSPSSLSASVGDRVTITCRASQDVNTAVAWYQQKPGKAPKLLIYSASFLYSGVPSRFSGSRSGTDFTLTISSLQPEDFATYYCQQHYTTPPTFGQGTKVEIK
notes: also called Antibody 22
B2: 2290-D02 (antibody, V domains shown)
VH: EVQLVESGGGLVQPGGSLRLSCAASGFNISSYWIHWVRQAPGKGLEWMGVITPAAGYTYYADSVKGRFTISADTSKNTAYLQMNSLRAEDTAVYYCARDLGHRYWVGVFDYWGQGTLVTVSS
VL: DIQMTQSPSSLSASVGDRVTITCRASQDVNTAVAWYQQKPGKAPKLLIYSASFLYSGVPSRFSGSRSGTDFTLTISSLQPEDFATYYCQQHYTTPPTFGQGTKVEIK
notes: also called Antibody 18
B3: 2290-D05 (antibody, V domains shown)
VH: EVQLVESGGGLVQPGGSLRLSCAASGFNIASRWIHWVRQAPGKGLEWVGVITPSAGYTYYADSVKGRFTISADTSKNTAYLQMNSLRAEDTAVYYCARDLGYGYWVGFSDYWGQGTLVTVSS
VL: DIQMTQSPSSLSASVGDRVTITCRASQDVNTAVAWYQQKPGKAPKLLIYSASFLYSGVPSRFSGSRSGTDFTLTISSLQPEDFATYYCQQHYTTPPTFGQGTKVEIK
notes: also called Antibody 20
B4: 2290-C08 (antibody, V domains shown)
VH: EVQLVESGGGLVQPGGSLRLSCAASGFNIQPYWIHWVRQAPGKGLEWVGVITPPSGYTYYADSVKGRFTISADTSKNTAYLQMNSLRAEDTAVYYCARDWGVGYWVGFSDYWGQGTLVTVSS
VL: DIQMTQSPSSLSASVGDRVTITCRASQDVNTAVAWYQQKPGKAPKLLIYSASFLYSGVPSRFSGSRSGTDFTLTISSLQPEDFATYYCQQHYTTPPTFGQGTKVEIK
notes: also called Antibody 21
B5: 2137-A05 (antibody, V domains shown)
VH: EVQLVESGGGLVQPGGSLRLSCAASGFNINNSYIHWVRQAPGKGLEWVGWIYPYSGYTNYADSVKGRFTISADTSKNTAYLQMNSLRAEDTAVYYCARDYGPWYGTGVLDYWGQGTLVTVSS
VL: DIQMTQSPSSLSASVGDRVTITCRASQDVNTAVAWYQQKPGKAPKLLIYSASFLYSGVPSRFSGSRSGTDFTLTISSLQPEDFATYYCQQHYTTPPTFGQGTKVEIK
notes: also called Antibody 14
B6: 2288-A03 (antibody, V domains shown)
VH: EVQLVESGGGLVQPGGSLRLSCAASGFNINNSWIHWVRQAPGKGLEWVGWIYPYIGFTEYADSVKGRFTISADTSKNTAYLQMNSLRAEDTAVYYCARDYDLRYLTGVLDYWGQGTLVTVSS
VL: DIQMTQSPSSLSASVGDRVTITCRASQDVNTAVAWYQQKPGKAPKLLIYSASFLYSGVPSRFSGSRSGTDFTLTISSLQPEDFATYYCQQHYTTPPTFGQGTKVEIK
notes: also called Antibody 15
B7: 2291-A04 (antibody, V domains shown)
VH: EVQLVESGGGLVQPGGSLRLSCAASGFNISSYGIHWVRQAPGKGLEWVGFISPYDGYTEYADSVKGRFTISAGTSKNTAYLQMNSLRAEDTAVYYCARDFNDRYFTYVLDYWGQGTLVTVSS
VL: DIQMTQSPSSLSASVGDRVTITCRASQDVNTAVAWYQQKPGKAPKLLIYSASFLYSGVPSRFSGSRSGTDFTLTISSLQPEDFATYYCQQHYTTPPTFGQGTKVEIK
notes: also called Antibody 28
B8: 2291-G05 (antibody, V domains shown)
VH: EVQLVESGGGLVQPGGSLRLSCAASGFNIAAYTIHWVRQAPGKGLEWVGWISPYGGYTEYADSVKGRFTISADTSKNTAYLQMNSLRAEDTAVYYCARDFHDRYATFVLDYWGQGTLVTVSS
VL: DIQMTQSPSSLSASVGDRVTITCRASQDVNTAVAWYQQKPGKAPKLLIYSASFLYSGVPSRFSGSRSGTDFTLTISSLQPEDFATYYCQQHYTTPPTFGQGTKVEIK
notes: also called Antibody 24
B9: 2291-F10 (antibody, V domains shown)
VH: EVQLVESGGGLVQPGGSLRLSCAASGFNIDPYTIHWVRQAPGKGLEWVGWISPYDGYTEYADSVKGRFTISADTSKNTAYLQMNSLRAEDTAVYYCARDYYDRYSTYVLDYWGRGTLVTVSS
VL: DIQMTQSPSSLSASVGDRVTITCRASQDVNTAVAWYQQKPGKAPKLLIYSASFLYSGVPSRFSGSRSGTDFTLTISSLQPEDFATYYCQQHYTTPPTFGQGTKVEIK
notes: also called Antibody 27
B10: 2291-A01 (antibody, V domains shown)
VH: EVQLVESGGGLVQPGGSLRLSCAASGFNIDPYTIHWARQAPGKGLEWVAHISPYDGYTDYADSVKGRFTISADTSKNTAYLQMNSLRAEDTAVYYCARDFYDRYSTYVLDYWGQGTLVTVSS
VL: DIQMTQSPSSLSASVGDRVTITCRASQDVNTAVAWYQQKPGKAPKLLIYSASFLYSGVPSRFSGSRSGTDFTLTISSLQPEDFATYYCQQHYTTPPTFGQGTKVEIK
notes: also called Antibody 29
B11: 2291-D07 (antibody, V domains shown)
VH: EVQLVESGGGLVQPGGSLRLSCAASGFNIKDTYIHWVRQAPGKGLEWVGVISPYDGYTEYADSVKGRFTISADTSKNTAYLQMNSLRAEDTAVYYCAHDFYDRYSTYVLDYWGQGTLVTVSS
VL: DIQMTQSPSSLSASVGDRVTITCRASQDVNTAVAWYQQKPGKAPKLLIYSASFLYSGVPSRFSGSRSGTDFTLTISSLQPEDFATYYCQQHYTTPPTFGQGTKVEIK
notes: also called Antibody 26
B12: 2291-E06 (antibody, V domains shown)
VH: EVQLVESGGGLVQPGGSLRLSCAASGFNISPYTIHWVRQAPGKGLEWVAHIFPSGGYTDYADSVKGRFTISADTSKNTAYLQMNSLRAEDTAVYYCARDFYDRYATYVLDYWGQGTLVTVSS
VL: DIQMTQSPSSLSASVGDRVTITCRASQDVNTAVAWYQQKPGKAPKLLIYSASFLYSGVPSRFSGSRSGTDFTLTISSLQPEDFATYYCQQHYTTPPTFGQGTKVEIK
notes: also called Antibody 25
B13: 10F4 (antibody, V domains shown)
VH: AVTLDESGGGLQTPGGALSLVCKASGFTFSGYNMGWVRQAPGKGLEYVAGITYGTGSYTAYGAAVKGRATISRDNGQSTLRLQLNNLRAEDTATYYCARGGGLNSYGCSGANIDAWGHGTEVIVSS
VL: ALTQPSSVSANLGGTVKITCSGGGNYFGSYYYGWYQQKAPGSAPVTVIYNNNNRPSDIPSRFSGSTSGSTSTLTISGVRAEDEAVYFCGGFDSSTDAIFGAGTTLTVL
notes: Chicken HybriFree-derived antibody; also called Antibody 37

Legend:
cynomolgus BCMA on cells = cynomolgus BCMA on cells (cynomolgus monkey, UniProt Q02223 1-184 (human entry)); test: FACS, 293T-cynoBCMA cells
Chain of cynomolgus BCMA on cells (Q02223 other isoform, or with tags, fused parts or gaps): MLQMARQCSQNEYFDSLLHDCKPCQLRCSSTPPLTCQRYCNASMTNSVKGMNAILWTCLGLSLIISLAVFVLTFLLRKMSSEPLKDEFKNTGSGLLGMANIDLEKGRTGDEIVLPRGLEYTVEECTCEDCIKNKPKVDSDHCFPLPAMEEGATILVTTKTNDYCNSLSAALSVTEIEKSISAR
Protocol: (§1) Variants for which sufficient protein was purified in secondary screening were tested in a fluorescence-activated cell sorting (FACS) cell-binding assay. […] 6-12 point dilutions of anti-BCMA variants starting from concentrations of about 100-200 nM antibody were dispensed into each well using a BioMekFX (Beckman Coulter). Cells were then incubated on ice for 1 hr, washed with FACS buffer and incubated for 1 hr on ice with […] FACS buffer containing 2.5 μg/ml Alexa647-conjugated Goat Anti-Human IgG dispensed using BioMekFX (Beckman Coulter). Cells were then washed 2× with FACS buffer and fixed for 10 minutes in […] PBS with 2% paraformaldehyde (PFA) prior to fluorescence detection. Samples were acquired using a Beckton Dickinson LSRII FACS. Geometric Mean Fluorescence Intensity of BCMA antibody binding was analyzed using FlowJo® software (Tree Star, Inc.).

human BCMA-Fc [1] = biological target: T1, human BCMA-Fc; test: SPR Biacore, antibody captured, 25 C
Protocol: Anti-Fab or anti-Fc polyclonal antibodies were immobilized onto a CM5 chip (GE Life Sciences) using amine coupling chemistry (from Amine Coupling Kit, GE Life Sciences). The immobilization steps were carried out at a flow rate of 25 μL/min in 1×HBS-EP+ buffer (GE Life Sciences; 10× Stock diluted before use). The sensor surfaces were activated for 7 min with a mixture of NHS (0.05 M) and EDC (0.2 M). The anti-Fab or anti-Fc antibodies were injected over all 4 flow cells at a concentration of 25 μg/ml in 10 mM sodium acetate, pH 4.5, for 7 min. Ethanolamine (1 M, pH 8.5) was injected for 7 min to block any remaining activated groups.
Off-rate and kinetic binding experiments were performed at 25° C. using 1×HBS-EP+ buffer. […] After capturing ligand (antibody) on the anti-Fab or anti-Fc surface, the analyte (human BCMA-Fc, cyno BCMA-Fc, or human BCMA from R&D Systems, custom protein production, or Sigma Aldrich, respectively) was bound for 180 seconds, followed by a 600 second dissociation phase at a flow rate of 50 μL/min. Between each ligand capture and analyte binding cycle, regeneration was carried out using 2 injections of 10 mM glycine pH 2.0 for 30 seconds at 30 μL/min, followed by a 30 second buffer wash step.
The data was fit with the Biacore T200 Evaluation software, using a 1-1 Langmuir binding model. KD (affinity, nM) was determined as a ratio of the kinetic rate constants calculated from the fits of the association and dissociation phases.

human BCMA on cells = biological target: T2, human BCMA on cells; test: FACS, NCI-H929 cells
Protocol: as §1

human BCMA-Fc [2] = biological target: T1, human BCMA-Fc; test: ELISA, coated huBCMA-Fc
cyno BCMA-Fc = biological target: T3, cyno BCMA-Fc (cynomolgus monkey, UniProt Q02223 1-54 (human entry)); test: ELISA, coated cynoBCMA-Fc
T3 construct: Custom protein production; also called cynomolgus BCMA-Fc; not shown: Fc part not described

rat BCMA on cells = biological target: T4, rat BCMA on cells (rat); test: FACS, 293T-ratBCMA cells
T4 construct: whole, on cells

Binder | Bmax (cynomolgus BCMA on cells) [MFI] | Kd (cynomolgus BCMA on cells) [pM] | Kd (human BCMA-Fc [1]) [pM] | koff (human BCMA-Fc [1]) [s⁻¹] | kon (human BCMA-Fc [1]) [M⁻¹ s⁻¹] | Bmax (human BCMA on cells) [MFI] | Kd (human BCMA on cells) [pM] | Bmax (human BCMA-Fc [2]) | EC50 (human BCMA-Fc [2]) [pM] | Bmax (cyno BCMA-Fc) | EC50 (cyno BCMA-Fc) [pM] | Bmax (rat BCMA on cells) [MFI] | Kd (rat BCMA on cells) [pM]
B1 | 70300 | 2300 | 567 | 0.000131 | 231000 | 33600 | 4900 | 4.87e+06 | 400 | 4.47e+06 | 400 |  | 
B2 | 75800 | 3500 | 949 | 0.000277 | 292000 | 33600 | 19200 | 4.54e+06 | 300 | 3.91e+06 | 200 |  | 
B3 | 57600 | 1700 | 937 | 0.000446 | 476000 | 21800 | 4600 | 3.94e+06 | 300 | 3.61e+06 | 200 |  | 
B4 | 71000 | 2300 | 378 | 0.000252 | 666000 | 37800 | 11000 | 4.33e+06 | 300 | 4.14e+06 | 200 |  | 
B5 | 1910 | 18300 | 2360 | 0.00332 | 1.41e+06 | 2690 | 10000 | 3.3e+06 | 520 | 2.2e+06 | 419000 |  | 
B6 | 46800 | 1800 | 557 | 0.000516 | 927000 | 16300 | 4800 | 4.24e+06 | 560 | 3.02e+06 | 570 |  | 
B7 | 63800 | 1200 | 716 | 0.000349 | 487000 | 33900 | 5000 | 4.6e+06 | 230 | 4.23e+06 | 200 |  | 
B8 | 62700 | 1000 | 962 | 0.000423 | 440000 | 23200 | 1400 | 3.91e+06 | 130 | 3.38e+06 | 90 |  | 
B9 | 66500 | 700 | 178 | 9.65e-05 | 541000 | 33800 | 5400 | 3.72e+06 | 100 | 3.43e+06 | 60 |  | 
B10 | 67200 | 1000 | 43.8 | 2.82e-05 | 644000 | 32500 | 4900 | 5e+06 | 390 | 4.77e+06 | 330 |  | 
B11 | 67900 | 500 | 948 | 0.000414 | 437000 | 28700 | 3800 | 4.08e+06 | 30 | 3.94e+06 | 30 |  | 
B12 | 68300 | 1400 | 763 | 0.000357 | 468000 | 34400 | 5800 | 4.11e+06 | 210 | 3.36e+06 | 130 |  | 
B13 | 12800 | 5940 |  |  |  | 18700 | 10500 |  |  |  |  | 410 | 5470
